T1: MORT-1 (Homo sapiens, UniProt Q13158, G32V)
T1 sequence (Q13158 with tags, fused parts or gaps G32V): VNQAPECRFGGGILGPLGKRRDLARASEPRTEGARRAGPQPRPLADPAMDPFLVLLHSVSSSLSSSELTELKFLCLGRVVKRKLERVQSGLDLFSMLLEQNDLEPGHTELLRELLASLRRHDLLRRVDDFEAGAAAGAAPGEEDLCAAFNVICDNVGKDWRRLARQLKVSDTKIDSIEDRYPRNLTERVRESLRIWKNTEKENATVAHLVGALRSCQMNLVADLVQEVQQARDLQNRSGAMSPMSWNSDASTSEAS


Legend:
[1] = target: T1, MORT-1; assay: Two-hybrid β-galactosidase expression filter assay in SFY526 yeast, DNA-binding domain hybrid MORT-1; parameters: the full-length MORT-1 cDNA was used (MORT 1); expressed in transfected cells; host or cells: SFY526 yeast; details: substance as activation domain hybrid
Source text: (§1) To isolate proteins interacting with the intracellular domain of the FAS-R, the yeast two-hybrid system was used (Fields and Song, 1989). […] In this system, the genes for the candidate interacting proteins are cloned into separate expression vectors. In one expression vector, the sequence of the one candidate protein is cloned in phase with the sequence of the GAL4 DNA-binding domain to generate a hybrid protein with the GAL4 DNA-binding-domain, and in the other vector, the sequence of the second candidate protein is cloned in phase with the sequence of the GAL4 activation domain to generate a hybrid protein with the GAL4-activation domain. The two hybrid vectors are then co-transformed into a yeast host strain having a lacZ or HIS3 reporter gene under the control of upstream GAL4 binding sites. Only those transformed host cells (cotransformants) in which the two hybrid proteins are expressed and are capable of interacting with each other, will be capable of expressing the reporter gene. […]
The yeast two-hybrid test was further applied to evaluate the specificity of binding of MACH to MORT-1, in particular, to define the region in MORT-1 to which MACH binds, as well as to determine which of the MACH ORFs interacts with MORT-1, the procedures being as set forth herein above in Examples 1 and 2. Briefly, various MORT-1 and MACH constructs were prepared for testing the interaction of the proteins encoded by the Gal4 DNA-binding domain and activation domain constructs within transfected SFY526 yeast cells as assessed by the β-galactosidase expression filter assay. […] In the assay, the development of color was determined, where the greater the color development, the greater the interaction between the constructs encoded by the DNA-binding domain and activation domain; Color development was depicted by symbols, where “+++” and “+” indicate the development of a strong color within 30 and 90 min. of the assay, respectively, and “−−−” indicates the lack of development of color within 24 hrs. of the assay. […]

[2] = tested on: breast carcinoma MCF7 cells; assay: Cell death on overexpression of MACH isoforms in MCF7 cells; format: cell-based, human; details: β-galactosidase-expressing cells with apoptopic morphology, 20 h after transfection
Method: To explore the involvement of MACH in cell-death induction, the effect of overexpression of various MACH isoforms on cell viability was examined. The test was performed by transfecting MACH expression vectors together with a β-galactosidase expression vector as a transfection marker into human embryonic kidney 293-EBNA cells and breast carcinoma MCF7 cells.
In brief, 293-EBNA cells, MCF7 human breast carcinoma cells and HeLa HtTA-1 cells were grown in Dulbecco's modified Eagle's minimal essential medium supplemented with 10% fetal calf serum, nonessential amino acids, 100 U/ml penicillin and 100 μg/ml streptomycin. Cell tissue culture dishes (5×10^5 293-EBNA cells, 3×10^5 s MCF7 cells or 3×10^5 HeLa cells in 6-cm dishes) were transiently transfected, using the calcium phosphate precipitation method, with the cDNAs of the indicated proteins together with the β-galactosidase expression vector. In the experiments presented in FIGS. 14A-D and 15, each dish was transfected with 3.5 μg of the indicated MACH construct and 1.5 μg of pSV-β-gal. In the experiments presented in FIGS. 16A-D and 17-19, each dish was transfected with 2.5 μg of the indicated MACH or MORT1 construct (or, as control, empty vector) and 1.5 μg of pSV-β-gal. The cells were rinsed 6 to 10 h after transfection. The 293-EBNA and MCF7 cells were incubated for a further 18 h without additional treatment. The HeLa cells were incubated for 26 h after transfection and-then for 5 h in the presence of either anti-Fas.APO1 antibody (CH11, 0.5 μg/ml) or TNF (100 ng/ml), together with cycloheximide (10 μg/ml). The extent of cell death at the end of the incubation periods was assessed by determination of β-galactosidase expression, as described by Kumar et al, 1994.
In particular, FIGS. 14A-D show the morphology of human embryonic kidney 293-EBNA cells transiently expressing the indicated MACH isoforms. The arrows (FIG. 14B) point to apoptopic cells. Photographs were taken 26 h after transfection. […] Data are from three independent experiments with the 293-EBNA cells and two independent experiments with the MCF7 cells.

[3] = target: T2, MACH B (Homo sapiens, UniProt Q14790); assay: Two-hybrid β-galactosidase expression filter assay in SFY526 yeast, DNA-binding domain hybrid MACH B; details: DNA-binding domain hybrid MACH B (ORF-B region)
T2 construct: a construct encoding only the ORF-B (MACH B) region; expressed in transfected cells; host or cells: SFY526 yeast
Source text: as §1, with “sites.” for “sites. Only those transformed host cells (cotransformants) in which the two hybrid proteins are expressed and are capable of interacting with each other, will be capable of expressing the reporter gene.”
The yeast two-hybrid test was further applied to evaluate the specificity of binding of MACH to MORT-1, in particular, to define the region in MORT-1 to which MACH binds, as well as to determine which of the MACH ORFs interacts with MORT-1, the procedures being as set forth herein above in Examples 1 and 2. Briefly, various MORT-1 and MACH constructs were prepared for testing the interaction of the proteins encoded by the Gal4 DNA-binding domain and activation domain constructs within transfected SFY526 yeast cells as assessed by the β-galactosidase expression filter assay. […]

Molecule | development of color (interaction with DNA-binding domain hybrid) [1] | cell death of transfected MCF7 cells [2] | development of color (interaction with DNA-binding domain hybrid) [3]
MACHβ1: MACH isoform, cDNA SEQ ID NO: 4, amino acid SEQ ID NO: 5; lacks the CED3/ICE homology region (protein) MDFSRNLYDIGEQLDSEDLASLKFLSLDYIPQRKQEPIKDALMLFQRLQEKRMLEESNLSFLKELLFRINRLDLLITYLNTRKEEMERELQTPGRAQISAYRVMLYQISEEVSRSELRSFKFLLQEEISKCKLDDDMNLLDIFIEMEKRVILGEGKLDILKRVCAQINKSLLKIINDYEEFSKERSSSLEGSPDEFSNDFGQSLPNEKQTSGILSDHQQSQFCKSTGESAQTSQH | +++ (“+++” and “+” indicate the development of a strong color within 30 and 90 min. of the assay, respectively) | some slight cell death | + (“+++” and “+” indicate the development of a strong color within 30 and 90 min. of the assay, respectively)
MACHα1 (C360S): MACHα1 mutant in which the catalytic cysteine Cys360 is replaced by Ser (protein) MDFSRNLYDIGEQLDSEDLASLKFLSLDYIPQRKQEPIKDALMLFQRLQEKRMLEESNLSFLKELLFRINRLDLLITYLNTRKEEMERELQTPGRAQISAYRVMLYQISEEVSRSELRSFKFLLQEEISKCKLDDDMNLLDIFIEMEKRVILGEGKLDILKRVCAQINKSLLKIINDYEEFSKERSSSLEGSPDEFSNGEELCGVMTISDSPREQDSESQTLDKVYQMKSKPRGYCLIINNHNFAKAREKVPKLHSIRDRNGTHLDAGALTTTFEELHFEIKPHDDCTVEQIYEILKIYQLMDHSNMDCFICCILSHGDKGIIYGTDGQEAPIYELTSQFTGLKCPSLAGKPKVFFIQASQGDNYQKGIPVETDSEEQPYLEMDLSSPQTRYIPDEADFLLGMATVNNCVSYRNPAEGTWYIQSLCQSLRERCPRGDDILTILTEVNYEVSNKDDKKNMGKQMPQPTFTLRKKLVFPSD | – | No death | –
MORT-1: Mediator of Receptor-induced Toxicity; protein binding the intracellular domain of FAS-R, SEQ ID NO:2 (protein) VNQAPECRFGGGILGPLGKRRDLARASEPRTEGARRAGPQPRPLADPAMDPFLVLLHSVSSSLSSSELTELKFLCLGRVVKRKLERVQSGLDLFSMLLEQNDLEPGHTELLRELLASLRRHDLLRRVDDFEAGAAAGAAPGEEDLCAAFNVICDNVGKDWRRLARQLKVSDTKIDSIEDRYPRNLTERVRESLRIWKNTEKENATVAHLVGALRSCQMNLVADLVQEVQQARDLQNRSGAMSPMSWNSDASTSEAS | +++ (“+++” and “+” indicate the development of a strong color within 30 and 90 min. of the assay, respectively) | – | + (“+++” and “+” indicate the development of a strong color within 30 and 90 min. of the assay, respectively)

Source: patent publication US7799901B2, “Modulators of the function of FAS receptors and other proteins” (Yeda Research and Development Co. Ltd., priority 1995, dated 2010)
